± gives the uncertainty stated by the source.

The nature of the data set: amyloid nucleation score (Sup35N fusion, yeast selection) (log enrichment); library NNK2; higher = more nucleation; inactive = no reads after selection. The method in brief:
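The nucleation score equals the log enrichment of output over input reads from DiMSum, centred on the mode score of non-aggregating sequences. It was computed only for sequences with 100 or more input reads. The reads came from Illumina sequencing of plasmid inserts from psi-negative yeast expressing Sup35N fused to peptides of 20 random codons, induced with 100 μM copper sulfate for 24 hours and grown 7 days at 30°C without adenine and uracil.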
TRFRRDESRTSEDLRPRNRR: the amyloid nucleation score amounted to 1.26 ± 0.23.
In the case of AIITLYSNHKLYLWALLLDA, the amyloid nucleation score is -0.47 ± 1.1.
As for VSFRYCLYYYTENVVHMIVK, the amyloid nucleation score is -1.85 ± 0.54.
SWCVNVLAYSEKAFSRCVVM showed an amyloid nucleation score of 8.583 ± 0.048.
Substance MCPLT registered an amyloid nucleation score of 0.638 ± 0.17.
Regarding FLGLTDWRVDYCSEWQGFAQ, the amyloid nucleation score was -0.199 ± 1.1.
The substance AADRFVAMKICVLCHLKQSL had an amyloid nucleation score of 1.88 ± 0.25.
As to NGGPHRPDSLVWYLEHKMRQ, the amyloid nucleation score result is “inactive”.
Regarding ENFRGTFKIRRRCCL, the amyloid nucleation score was -0.251 ± 0.76.
Then GYHDRLSPSQTLPPTRNVLC, with 0.312 ± 0.8.
Substance THYNVGLINNIINNLILVYI returned an amyloid nucleation score of 4.52 ± 0.12.
For the substance QLALLMFMQTFNSYS, the amyloid nucleation score worked out at 7.43 ± 0.059.
Then VTSYHFRMSCAVREALSSRY, with 4.26 ± 0.055; and RCKIRSLFSNLYPDSVFTLT, with “inactive”; and FVKYRSLGKWVLRVTGVMVD, with “inactive”.
The substance TAFNIVSCSGLCSYYQFRF yielded an amyloid nucleation score of 8.109 ± 0.03.
As to DFIKMVV, the amyloid nucleation score was 3.73 ± 0.12.
Regarding GISVLRQTVFDLSIFIPHTS, the amyloid nucleation score amounted to 4.42 ± 0.055.
For the substance GCIAIIDWMNLTLFTLLLSS, the amyloid nucleation score was -0.375 ± 0.76.
Then NSIYTESHGCTSSCLYGSGY, with -0.839 ± 0.78.
On to SRICMKWDSSNLWSF, for which the amyloid nucleation score entry is “inactive”.
As to VDSPKREVNMCVWLLRRKQR, the amyloid nucleation score came out at 0.21 ± 0.34.
ISTIWFRLQTGARKTRLLFD: the amyloid nucleation score is -0.735 ± 0.79.
For VFTILSCWGPYRCVVTRALL the value was “inactive”; for TVWGYSSDLKLLEFISIGTQ, 2.71 ± 0.12; for ILGLPSINSSISLHKTITDP, 2.86 ± 0.056.
WTNVYAIVFR showed an amyloid nucleation score of 4.65 ± 0.044.
Then RIPHHWMSVGLVIAPRLKSV, with -0.365 ± 0.63.
Regarding TLKRSRPVLYNLYNGFVVVA, the amyloid nucleation score is 2.25 ± 0.21.
Then GGLIE, with -0.817 ± 1.1.
For MWLASSDNYHNMALVCFCVL, the amyloid nucleation score entry was “inactive”.
Then VATAAEWVQAGLE, with 2.32 ± 0.11; and ISFNQHTLSYKNVIFNCAFE, with 4.16 ± 0.044; and HRRVCLDAYTFTFLNMVLAW, with -0.187 ± 0.65.
For TMELFLRRFYIWIKDIDNGR the value was “inactive”; for ERSCSDIAGYPRPHGVQRNA, 3.01 ± 0.081.
For FYEYTDTASAGPDETLYLRN the value was 0.022 ± 0.63; for SNYDGPGSYIYEKYCSSEEG, -0.703 ± 1; for RFIND, -0.703 ± 1.
Turning to RQARRRRTSRQHEKGV, the amyloid nucleation score is 1.49 ± 0.16.
On to VSFTARSRHVDGGLSS, for which the amyloid nucleation score was determined as 1.04 ± 0.32.
Take GAAHDSYMNRWLITWNSKCK: the amyloid nucleation score was -1.52 ± 0.76.
For IDQLLGLDRSCCVNL, the amyloid nucleation score is 0.387 ± 0.8.
As to GCGVL, the amyloid nucleation score was -0.91 ± 0.55.
Take YLGLPLQDLRRVIMSEHVLV: the amyloid nucleation score came out at 0.779 ± 0.37.
With RLTVRWAYMSLLTVGQGGIM, the amyloid nucleation score is 0.21 ± 1.
For IVLLAVI the value was 0.539 ± 0.81; for IEKSMLVVLGINVRVSMGVG, 0.175 ± 0.24.
Regarding RVVFKHENLDMWCWMS, the amyloid nucleation score stood at 1.47 ± 0.11.
In turn, SNEKVAQSLFAKEREPLRGN showed an amyloid nucleation score of 2.35 ± 0.12.
Substance GTMPNGCKS had an amyloid nucleation score of 0.541 ± 0.74.
Take KSHHGWSTIRCNRWYIS: the amyloid nucleation score entry is “inactive”.
FFYRVPDITSDAGITQLLAQ: the amyloid nucleation score stood at 5.483 ± 0.048.
SCLTNGY returned an amyloid nucleation score of -0.154 ± 0.38.
Regarding YIIFGSRLVDRGSLQ, the amyloid nucleation score was 2.95 ± 0.16.
Turning to AFPTKCNVRSMSMHRLLLLC, the amyloid nucleation score entry is “inactive”.
For FYKLVAGNLANPCANRTCYL the value was -0.031 ± 1; for WLYSIDYNFLKRVIGYCYRN, “inactive”; for KPWTYDMVCSRFTSMWFCDY, 0.644 ± 0.38.
With LMMKKTGCTQFISRYLVRIY, the amyloid nucleation score was -1.42 ± 1.
As to YILRSANLM, the amyloid nucleation score is -0.406 ± 0.3.
The substance YLRFYRSIINILIKGSAFCV yielded an amyloid nucleation score of -1.49 ± 1.1.
Consider LLACVSVMFLRSSLINLDRL, for which the amyloid nucleation score is -0.637 ± 0.54.
The substance TTMSTGARGLSRCLSVVFRR returned an amyloid nucleation score of 3.08 ± 0.12.
The substance KVVITQSRVGTLESVKVFYV displayed an amyloid nucleation score of 1.77 ± 0.19.
Substance SYGMRTEWTVCIAIRLHASN registered an amyloid nucleation score of 1.31 ± 0.52.
In the case of FLMGVPEIFFPLVVSDYMYV, the amyloid nucleation score entry was “inactive”.
For the substance NRSFNMHPCGILKKNLVVGV, the amyloid nucleation score was found to be 0.613 ± 0.74.
For the substance VSQSDMDLHWLVYRVYWYVF, the amyloid nucleation score was -0.893 ± 0.44.
In the case of VNFVLGVL, the amyloid nucleation score was determined as 0.086 ± 0.19.
Regarding FIICPSSDCNIRDIRRILTC, the amyloid nucleation score is -0.967 ± 0.28.
Then FARKMIGLPLLYLLGVMFGR, with -0.877 ± 0.78; and RGVFAMLTVSYGNS, with 5.483 ± 0.043.
For FCNLN the value was -0.02 ± 0.28.
For ILNPFCTRFK the value was -2.26 ± 0.64.
For the substance DMGVFSLLDNK, the amyloid nucleation score was 0.579 ± 0.66.
For WGNNSYSPFASKYAVSQDMD the value was -0.902 ± 0.62.
Then SMSYTS, with 0.617 ± 0.14; and KAYPFYTLHVGGRDRVIPDW, with “inactive”.
For MSRWTKIGNFDNIPSIPLVV the value was -0.228 ± 0.36.
YNTQVCEVVMWGQHPTTLSS gave an amyloid nucleation score of -0.418 ± 0.41.
In turn, GYQRNYSFAVSMEARSVVPG showed an amyloid nucleation score of 4.12 ± 0.058.
Take RILTVYVPV: the amyloid nucleation score stood at 1.19 ± 0.39.
For the substance YLLYYNKWGLIK, the amyloid nucleation score result is “inactive”.
For FKASWVVRASNKDTHIHRGG the value was -0.144 ± 0.49; for TPTGSVLAYRVTISTKVVSL, 1.09 ± 0.38.
The substance SLCLLIALSRWSIAS came in with an amyloid nucleation score of 1.14 ± 0.3.
Substance AVPNLGSVPYVVDLMI had an amyloid nucleation score of 0.907 ± 0.29.
Consider SHRMTSNNTNSNLLGRKTGS, for which the amyloid nucleation score is -0.139 ± 0.19.
In the case of LFAYNDAFSEYFTITYVYQ, the amyloid nucleation score was -1.14 ± 1.1.
Then LNDNSIGSVILFFSAFLLFY, with 2.92 ± 0.12; and CMFWSHYTIRFSSWWLGGCE, with -0.149 ± 0.79; and FDYKSKKGRNNDWRTVCCVM, with 2.21 ± 0.16.
The substance ISQAWVS came in with an amyloid nucleation score of -0.329 ± 0.25.
YITAGFKESTSGQRQLRSWL gave an amyloid nucleation score of 2.08 ± 0.083.
In the case of GCVTSGMLMTLIIH, the amyloid nucleation score was -0.218 ± 0.48.
For TLLYKFTDCTVMMAIRVARR the value was 1.45 ± 0.52.
CWGHS came in with an amyloid nucleation score of -0.792 ± 0.79.
Regarding NKGVCDEVSVSSISVAIF, the amyloid nucleation score is -0.093 ± 0.63.
Turning to GYCPLGAPCAGM, the amyloid nucleation score was determined as 1.23 ± 0.2.
For AIRADTDFDYTIEGSVDGGG the value was -0.199 ± 0.63; for YIPLVVLHFSVRVWELSYWS, 0.115 ± 1.
